Residue numbers refer to the chain shown, from its start.

Consider 12 molecules from US20260217847A1 (NANJING REGENECORE BIOTECH, published 2026).

The target of this experiment is T1, human recombinant TfR1 protein (amino acids 89-760) (human, UniProt P02786 89-760).
T1 construct: range 89-760; Expressed in 293F cells from pcDNA3.4; also called humanized TfR1 protein; humanized recombinant TfR1 protein
Briefly: ELISA of crude extracts on coated TfR1, anti-HA HRP; positive clone = OD at least 5-fold over control. How it is done: Crude antibody extracts were obtained using osmotic lysis. 100 μL of the obtained crude antibody extract was transferred to the TfR1-coated ELISA plate and incubated at room temperature for 1 hour. Unbound antibodies were washed away with PBST buffer with Tween-20 (PBS purchased from Sangon Biotech, Cat. No. B548117-0500; Tween-20 purchased from Beyotime Biotechnology, Cat. No. ST825). 100 μL of 1:2000-diluted mouse anti-HA horseradish peroxidase (HRP)-conjugated antibody (Thermo Fisher) was added and incubated at room temperature for 1 hour. After washing with PBST buffer to remove unbound antibodies, HRP chromogenic solution was added, followed by a 15-minute reaction at 37° C. With the stop solution added, the absorbance was read at 450 nm using a microplate reader (purchased from TECAN).
On the technique in general: ELISA stands for enzyme-linked immunosorbent assay.

T1 sequence (P02786 89-760 limits assumed): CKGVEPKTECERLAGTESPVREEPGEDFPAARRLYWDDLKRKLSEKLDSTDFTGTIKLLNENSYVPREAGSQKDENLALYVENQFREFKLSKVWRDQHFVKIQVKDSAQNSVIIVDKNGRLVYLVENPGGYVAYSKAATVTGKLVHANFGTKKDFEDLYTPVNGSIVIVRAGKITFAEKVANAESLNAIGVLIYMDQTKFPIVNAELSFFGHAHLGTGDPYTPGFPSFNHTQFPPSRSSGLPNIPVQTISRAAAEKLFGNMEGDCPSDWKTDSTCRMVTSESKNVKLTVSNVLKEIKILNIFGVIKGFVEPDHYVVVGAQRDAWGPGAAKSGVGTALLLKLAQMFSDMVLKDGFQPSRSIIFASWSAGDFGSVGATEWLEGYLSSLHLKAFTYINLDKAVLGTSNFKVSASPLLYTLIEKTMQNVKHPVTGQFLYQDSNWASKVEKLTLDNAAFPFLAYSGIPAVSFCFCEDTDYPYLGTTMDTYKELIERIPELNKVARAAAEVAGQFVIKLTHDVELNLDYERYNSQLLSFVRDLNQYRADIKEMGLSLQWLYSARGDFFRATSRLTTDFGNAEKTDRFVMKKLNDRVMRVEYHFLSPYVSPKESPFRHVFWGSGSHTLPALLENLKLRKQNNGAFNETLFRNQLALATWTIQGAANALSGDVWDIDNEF

B1: anti-humanized TfR1 protein single-domain antibody 8E10 (VHH clone, crude extract from pMECS) (VHH, not shown: small tags and cut ends)
VHH: ESGGGLVQAGGSLRLSCAFSGPPFSTYGMGWFRQAPGKEREFVATISGSGFTTTYADSVKGRFTISRDNAKNTVYLQMNSLKPGDTAVYYCAAGVLDGTNWHEYDYWGQGTQVTVSS
Consider B1, for which the binding result is reported as “binds”.

B2: anti-humanized TfR1 protein single-domain antibody 8B8 (VHH clone, crude extract from pMECS) (VHH, not shown: small tags and cut ends)
VHH: B1 VHH with A9P, A18V, F19A, P22R, P23T, Y27S, G48W, G98S, N100S
As to B2, the binding result was “binds”.

B3: anti-humanized TfR1 protein single-domain antibody 5A3 (VHH clone, crude extract from pMECS) (VHH, not shown: small tags and cut ends)
VHH: ESGGGLVQAGGSLTLSCAVSRRAFNTKAMGWFRQAPGKEREFVATISWSGFSTNYADSVKGRFTISRDNAKNTVYLQMNSLKPGDTAVYYCAAGVLDGTNWHEYDYWGQGTQVTVSS
Turning to B3, the binding result was “binds”.

B4: anti-humanized TfR1 protein single-domain antibody 5D1 (VHH clone, crude extract from pMECS) (VHH, not shown: small tags and cut ends)
VHH: ESGGGLVQPGESLRLSCVASGSIWSIYTMGWYRQAPGKQRDFVASITRDGGRRHAESVKDRFTISRDNAKNTLYLQMNSLKPEDTAVYSCLAITSLGEYWGQGTQVTVSS
As for B4, the binding result is on record as “binds”.

B5: anti-humanized TfR1 protein single-domain antibody 7A3 (VHH clone, crude extract from pMECS) (VHH, not shown: small tags and cut ends)
VHH: B4 VHH with G50S, H54Y, M77T, S89Y, L91H
In the case of B5, the binding result was “binds”.

B6: anti-humanized TfR1 protein single-domain antibody 4C5 (VHH clone, crude extract from pMECS) (VHH, not shown: small tags and cut ends)
VHH: B4 VHH with V18A, K38L, A44G, T47A, D49E, H54Y, L73M, P82R, S89Y, L91N
For the molecule B6, the binding result was “binds”.

B7: anti-humanized TfR1 protein single-domain antibody 2H7 (VHH clone, crude extract from pMECS) (VHH, not shown: small tags and cut ends)
VHH: ESGGGLVQPGESLRLSCVASGSIWSIYTMGWYRQAPGKQRDFVASITGDSTRTLESVKDRFIISRDNTKNTLYLQMNSLKPEDTAVYYCQAITSLGEYWGQGTQVTVSS
Take B7: the binding result is “binds”.

B8: anti-humanized TfR1 protein single-domain antibody 4D11 (VHH clone, crude extract from pMECS) (VHH, not shown: small tags and cut ends)
VHH: B7 VHH with G48R, T68A, Q90H
In the case of B8, the binding result is given as “binds”.

B9: anti-humanized TfR1 protein single-domain antibody 5D3 (VHH clone, crude extract from pMECS) (VHH, not shown: small tags and cut ends)
VHH: ESGGGLVEPGGSLRLSCAASGNIFSINNMYWHRQAPGKQRELVGGITRGGITNYVDSVKGRFTISRDNAKNTVYLQMNSLKPEDTAVYFCNAHPWRLGIADYWGQGTQVTVSS
Regarding B9, the binding result is listed as “binds”.

B10: anti-humanized TfR1 protein single-domain antibody 7G10 (VHH clone, crude extract from pMECS) (VHH, not shown: small tags and cut ends)
VHH: ESGGGLVQAGASLKLSCNGSGRTFISYAMGWFRQAPGKQREFVAAERWSGSGIYYADSLKGRFTISRDNAKNTVYLEMNNLKPEDTAVYYCAAREGGLLHVATSYDYWGQGTQVTVSS
For B10, the binding result is recorded as “binds”.

B11: anti-humanized TfR1 protein single-domain antibody 7D10 (VHH clone, crude extract from pMECS) (VHH, not shown: small tags and cut ends)
VHH: ESGGGLVQPGGSLRLSCATSGGTFEMYAMAWFRQAPGKDREGVAGFSWRDSSTTYYSDSVKGRFTISRDNAKNTVYLQMNSLKPEDTAVYYCAARPYVSRWSESSGYDYWGQGTQVTVSS
As to B11, the binding result is “binds”.

B12: anti-humanized TfR1 protein single-domain antibody 7G5 (VHH clone, crude extract from pMECS) (VHH, not shown: small tags and cut ends)
VHH: ESGGGSVQPGGSLRLSCAVSGSIFSIDTMAWYRQAPGKQRELVAAITKGGSRNYADSVKGRFTISRDNAKNTVYLQMNSLKPEDTAVYYCLADRLFRDRSWGQGTQVTVSS
Regarding B12, the binding result is “binds”.
